Assay results taken from the Human Domainome abundance scans (Beltran et al. 2025).

B1: FERM and PDZ domain-containing protein 4, residues 75 to 154; numbered along this chain, Q14CM0 (parent)
chain: APRKVEMRRDPVLGFGFVAGSEKPVVVRSVTPGGPSEGKLIPGDQIVMINDEPVSAAPRERVIDLVRSCKESILLTVIQP

Variants of: B1
Experiment: abundance fitness (aPCA) (normalised: wild type 0, dead -1); higher = more abundant; growth selection in yeast, the domain comes from the species named
Details: Homo sapiens

Abundance fitness: each site, then its substitutions
I49: T -0.708 | A -0.581 | Q -0.941 | F -0.476 | C -0.267 | N -0.847 | L -0.111 | S -0.929 | M -0.529 | D -0.846 | E -0.894 | Y -0.855 | R -0.868 | H -0.676 | G -0.887 | W -0.779 | P -0.928 | V 0.006
E37: M -0.122 | L -0.235 | N -0.106 | K -0.176 | I -0.145 | T -0.126 | V -0.057 | R -0.211 | P -0.985 | Y -0.044 | Q -0.034
V54: W -1.07 | P -0.994 | E -0.771 | K -1.21 | C -0.03 | T -0.13 | N -0.945 | F -0.692 | Q -0.647 | Y -0.911 | I -0.117 | A -0.271 | D -0.928 | G -0.993 | L -0.207 | H -0.942 | S -0.627
A57: D -0.052 | Y 0.038 | R -0.12 | I -0.055 | Q -0.028 | N -0.149 | K -0.055 | C -0.005 | M 0.009 | S -0.009 | F 0.016 | L 0.032 | T 0 | P -0.816 | G -0.233 | H -0.083 | W 0.016 | E -0.022
I46: N -0.679 | V -0.014 | T -0.113 | F -0.255 | P -0.611 | S 0.073 | L -0.051 | M -0.293
P53: K -0.003 | C -0.029 | A -0.037 | E 0.007 | N -0.005 | Y -0.078 | G -0.079 | D 0.034 | I 0.116 | V -0.012 | L 0.004 | M -0.015 | H -0.03 | R -0.038 | F -0.124 | W -0.094 | S -0.002 | Q -0.035 | T -0.043
D44: E -0.173 | P -0.937 | S -0.264 | F -0.957 | C -0.289 | Y -0.697 | N -0.418 | G -0.73 | H -0.306 | Q -0.369 | K -1.01 | W -0.817 | R -1.01 | M -0.186 | A -0.221
S55: F -0.143 | T -0.157 | P -0.027
D51: M -0.077 | K -0.044 | V -0.385 | H 0.01 | W -0.234 | N -0.047 | L -0.168 | F -0.194 | Q -0.027 | E -0.016 | R -0.069 | T -0.079 | A -0.087 | P -0.821 | Y -0.145 | I -0.511 | S -0.039 | C -0.135
M48: H -0.121 | R -0.046 | K -0.046 | P -0.917 | Y -0.083 | F -0.01 | I -0.154 | S 0.008 | W -0.152 | L -0.072 | V -0.127 | D -0.095 | C -0.003 | G -0.025 | A 0.044 | T -0.015 | E -0.028 | N -0.095
G38: E -0.155 | P -0.54 | Q -0.099 | H -0.045 | Y -0.142 | D -0.061 | I -0.651 | N -0.078 | M -0.185 | K -0.105 | C -0.186 | T -0.137 | L -0.21 | W -0.274 | V -0.526 | F -0.096 | S -0.124
L40: S -0.87 | I -0.125 | D -0.965 | V -0.156 | A -0.871 | E -0.989 | G -1.01 | T -0.846 | N -0.94 | F -0.8 | H -1.07 | W -1.07 | Y -1.02 | R -0.978 | M -0.19 | P -0.928
K39: G -0.264 | H -0.028 | L 0.005 | S -0.119 | R -0.03 | T -0.201 | M -0.045 | F -0.036 | V -0.06 | Q -0.032 | A -0.079 | D -0.546 | E -0.135 | C -0.036 | I 0.005 | P -0.679 | W -0.145 | Y -0.068
Q45: A -0.084 | N -0.126 | S -0.102 | H -0.009 | R -0.026 | V -0.123 | D -0.589 | W -0.2 | C -0.101 | I -0.105 | K -0.057 | F -0.247 | L -0.136 | E -0.037 | P -0.938 | T -0.105
G43: E -0.18 | R -0.248 | W -0.402 | I -1.03 | Y -0.246 | Q -0.227 | P -0.958 | V -0.991 | N -0.131 | M -0.175 | T -0.424 | H -0.204 | F -0.256 | L -0.284 | S -0.262 | C -0.252 | D -0.108
V47: T -0.01 | G -0.426 | H -0.06 | E -0.083 | W -0.128 | R -0.192 | L 0.012 | I 0.018 | D -0.084 | Y -0.019 | S -0.098 | N -0.175 | A -0.112 | Q -0.045 | M -0.03 | K -0.114 | C -0.032 | F -0.118
P58: V -0.167 | Q -0.091 | T -0.029 | A -0.067 | H -0.09 | E -0.06 | K -0.027 | F -0.33 | G -0.014 | N -0.04 | D -0.061 | M -0.217 | I -0.29 | C -0.043 | S 0.017 | R -0.063 | L -0.24
I41: A 0.005 | D -0.063 | Q -0.003 | P -0.925 | S 0.033 | C -0.014 | K -0.008 | E 0.015 | F 0.043 | W -0.004 | V -0.009 | M 0.03 | L 0.024 | T 0.013 | H 0.028 | G -0.084 | Y -0.011 | N 0.032
E52: G -0.321 | W -0.065 | K -0.066 | T -0.037 | N -0.048 | D -0.071 | S -0.102 | C -0.069 | Y -0.045 | P -0.861 | I -0.053 | M -0.038 | L -0.026 | H -0.037 | R -0.053 | F -0.083 | Q -0.012
P42: W -0.477 | Q -0.043 | K -0.108 | N -0.069 | A -0.036 | V -0.048 | R -0.124 | T -0.058 | S -0.093 | D -0.064 | Y -0.276 | L -0.104 | I -0.082 | G -0.237 | M -0.154 | H -0.155 | E -0.024
N50: H -0.11 | M -0.187 | I -0.607 | C -0.2 | Q -0.094 | T -0.597 | Y -0.162 | F -0.145 | S -0.185 | L -0.361 | G 0 | D -0.035 | K -0.223 | V -0.695 | E -0.054 | W -0.173 | P -0.919 | A -0.143
